The record followed here is the RNAGym collection of RNA variant scans (doi:10.1093/molbev/msab373).

The chains are these.
B1: Azoarcus group I ribozyme (parent)
chain: GUGCCUUGCGCCGGGAAACCACGCAAGGGAUGGUGUCAAAUUCGGCGAAACCUAAGCGCCCGCCCGGGCGUAUGGCAACGCCGAGCCAAGCUUCGGCGCCUGCGCCGAUGAAGGUGUAGAGACUAGACGGCACCCACCUAAGGCAAACGCUAUGGUGAAGGCAUAGUCCAGGGAGUGGCGAAAGUCACACAAACCGG

The variants in this data set derive from B1. Kind of data set: reverse-splicing fitness (ratio to wild type); higher = more active; in vitro selection; Mg2+ level not given. The method, boiled down:
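An in vitro group I ribozyme library with randomized positions was T7-transcribed and gel-purified. In triplicate, 10 pmol RNA in EPPS pH 7.5 was reacted with 50 pmoles of a 30-nt RNA substrate for 1 h at 37 °C across several added MgCl2 levels (1–48 mM), then stopped with EDTA. Products were reverse transcribed from a substrate-complementary primer, PCR-amplified and sequenced (HiSeq 4000). Fitness is a variant's read proportion after selection over that before, normalised to wild type.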
With C82G A120C A145U C150A, the reverse-splicing fitness is 0.0209.
As for C82G A111C A120C A145G C150G C169G, the reverse-splicing fitness worked out at 0.00708.
For the variant C82G A111G A120C A145C C150A C169A U176G, the reverse-splicing fitness is 0.00653.
With A111G A145G C150G C169A, the reverse-splicing fitness turned out to be 0.0128.
Consider A145C C169A U176A, for which the reverse-splicing fitness was found to be 0.029.
For the variant C82A A111C A120U A145G C150G, the reverse-splicing fitness is 0.00762.
Take A145U C150U C169G U176C: the reverse-splicing fitness is 0.0907.
The result for C82A A120G A145G C150A U176C reads 0.0213; that for C82G A111G A120G A145U C169U U176C, 0.0161; that for C82U A111G A120G C150G C169G U176G, 0.00428.
The result for A145U C169A U176G reads 0.00543; that for A111U A120C A145G C150A C169G, 0.00836; that for C82U A111G A120G A145U, 0.0174.
Take C82G A111U C169G: the reverse-splicing fitness was 0.00946.
The result for C82U A120C A145C C150U C169U U176G reads 0.00398; that for C82A A111G A120C A145U C169U U176C, 0.0131; that for A111U A120C C150G C169A U176A, 0.00901.
Next, C82G A111C A120G A145G C169G U176A: 0.0188; C82G A145U C150G C169U U176C: 0.0119.
Regarding A111G A120U A145C C150U C169U, the reverse-splicing fitness is 0.0277.
Next, C150G C169G: 0.0309; C82U A145U C150A C169U U176A: 0.0118.
For C82A A111C A120G C150A C169U, the reverse-splicing fitness worked out at 0.00723.
The result for C82U C150A C169A U176A reads 0.019; that for C82A A120C A145C C150A C169A U176C, 0.0102; that for C82U A111G A120U C169A U176C, 0.00211.
Consider A111U A120U C150A C169A U176C, for which the reverse-splicing fitness came to 0.00348.
Next, C82G A111G A145G C150G U176A: 0.0145.
The result for C82G A120C A145C C150U C169U U176A reads 0.0146; that for C82G A111C A120C A145C C150U C169U U176A, 0.0131; that for C82U A111U A120G A145U C150G U176G, 0.00302.
Next, C82G A120U A145U C150U C169U U176G: 0.00159; A120G C150A C169G U176G: 0.00584; C82A A111G A120U C150U U176A: 0.00851.
C82G A111C A120U A145C C150G C169U U176A: the reverse-splicing fitness is 0.00358.
The result for C82A A111U A120U C150A U176A reads 0.00697; that for C82G A111G A120U C150U C169U U176A, 0.00523; that for A111G A120C A145G C150G C169U U176G, 0.00458.
Next, C82A A111C A120U A145U C169A U176A: 0.00312; C82A A111U A120C A145C: 0.0267.
Regarding C82U A111C A120G A145G C150G C169G U176C, the reverse-splicing fitness worked out at 0.0114.
Next, C82G A111C A120C A145U C150U C169G U176C: 0.0162; A111C A120C A145G C150G C169A U176A: 0.0133; A111G C150G C169A U176C: 0.0111.
Consider C82G, for which the reverse-splicing fitness is 0.499.
Next, A111C A120U A145C C150U U176A: 0.0649; C82U A111C A120G C150G C169U U176A: 0.00853.
As for C82G A111U C150A C169A U176C, the reverse-splicing fitness was found to be 0.0206.
The result for A111U A120C C169A U176C reads 0.017.
Consider C82G A111G A145G C150G C169U U176A, for which the reverse-splicing fitness was determined as 0.012.
Next, A120C A145G C150U C169U U176A: 0.125; C82U A111C A120U A145C C150A C169U U176C: 0.00249; C82A A111G A120G A145G C150G C169U U176G: 0.00793.
Next, C82U A111G A120G A145G C150G C169A U176A: 0.0123.
As for A111U A120U A145G C150A, the reverse-splicing fitness was 0.0883.
The result for A120U A145U C169U U176G reads 0.0134.
Take C82A A111C C150G U176A: the reverse-splicing fitness stood at 0.0084.
Next, C82G A111C A120G A145C C150U C169A: 0.00816; A111U A120U A145U C150U C169A: 0.00404.
Regarding C82U A111G A120G C150A U176G, the reverse-splicing fitness was 0.00658.
In the case of C82G A120C A145C C150G C169U U176C, the reverse-splicing fitness came out at 0.0116.
Next, C82A A111C A120C A145G C150U C169A U176G: 0.00826; C82G A120C C150G C169G U176C: 0.00574; C82A A120C A145G C150G C169A U176C: 0.0128.
Consider C82A A120G A145U C150G C169A, for which the reverse-splicing fitness was 0.00891.
The result for C82U A111U A120C A145G C169G U176C reads 0.0209.
C82U A111C A120U A145G C150G U176C: the reverse-splicing fitness amounted to 0.00806.
Next, A111C C150G C169A U176A: 0.00958; C82A A111C C150A C169U: 0.0131.
As for C82G A111U A120C C150U C169A U176C, the reverse-splicing fitness was 0.0138.
For C82G A120C C150A U176A, the reverse-splicing fitness came to 0.0182.
Next, C82U A145U C169A U176G: 0.00464; C82U A111U A120G A145C C169A U176A: 0.00993.
Next, A111C A145G C150G U176G: 0.0194; C82G A111U A145C C150G C169A: 0.00892; C82U A120U A145G C169A U176G: 0.00152.
As for C82A A111U A120G C150G C169U U176A, the reverse-splicing fitness was 0.01.
For the variant C82G A111C A120C A145G C169A, the reverse-splicing fitness was 0.00871.
As to C82A A120U A145C C150A C169U, the reverse-splicing fitness came out at 0.00225.
The result for C82U A111C A120C A145G C150U C169A U176A reads 0.0123; that for C82U A111U A120U C169G U176C, 0.00303; that for C82A A111U A120U C150A C169A U176C, 0.00509.
Next, C82A A111U C169U U176G: 0.00671.
Next, C82U A120C A145G C150U U176A: 0.0355.
